Data published in patent publication US20200283478A1 (Genentech, published 2020).
Square brackets hold non-standard residues; d marks the D form. Ends that are not written are not given here. * marks the point of attachment. Trp(6-Br) = N[C@@H](Cc1c[nH]c2cc(Br)ccc12)C(=O)O; Trp(6-Cl) = N[C@@H](Cc1c[nH]c2cc(Cl)ccc12)C(=O)O; Trp(6-F) = N[C@@H](Cc1c[nH]c2cc(F)ccc12)C(=O)O; Trp(6-Me) = Cc1ccc2c(C[C@H](N)C(=O)O)c[nH]c2c1; hArg = N=C(N)NCCCC[C@H](N)C(=O)O; Pentanoyl = CCCCC(=O)*

Legend:
[1] = target: T1, His-tagged, full-length PCSK9 (human, UniProt Q8NBP7 31-692); test: TR-FRET competition; His-PCSK9, competitor EGF(A)-Fc
T1 construct: The secreted protein is autocleaved into a prodomain and a catalytic/Cys-rich chain that starts at S153; also called His-PCSK9
Description: Signal generation in the PCSK9 binding assays was dependent upon the binding interaction to bring into close proximity the His-tag on the PCSK9 and the Fc-tag on the ligand. Anti-His-APC was bound to the His-tag, and anti-Fc-europium was bound to the Fc-tag.
Compounds were solubilized and dilutions were prepared in DMSO. […] The plate was centrifuged to mix the well contents and allowed to incubate for 30 min. […] The normalized TR-FRET ratios were plotted as a function of the compound concentrations, and the IC₅₀ values were determined using a 4-parameter logistic regression.

His-tagged PCSK9Δhelix = target: T2, His-tagged PCSK9Δhelix (human, UniProt Q8NBP7 31-152; Q8NBP7 168-692); test: TR-FRET competition; His-PCSK9Δhelix, competitor Ab20
T2 construct: Construct M1-Q692 with engineered TEV site, cut by TEV protease; new N-terminus of the catalytic domain is S-A168; also called His-PCSK9Δhelix
T2 sequence (Q8NBP7 31-152, stated change not applied, chain 1 of 2): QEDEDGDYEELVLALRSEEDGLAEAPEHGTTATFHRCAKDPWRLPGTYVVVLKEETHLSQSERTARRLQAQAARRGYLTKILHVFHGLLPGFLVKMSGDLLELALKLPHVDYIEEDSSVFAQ
T2 sequence (Q8NBP7 other isoform, or with tags, fused parts or gaps mutant, chain 2 of 2): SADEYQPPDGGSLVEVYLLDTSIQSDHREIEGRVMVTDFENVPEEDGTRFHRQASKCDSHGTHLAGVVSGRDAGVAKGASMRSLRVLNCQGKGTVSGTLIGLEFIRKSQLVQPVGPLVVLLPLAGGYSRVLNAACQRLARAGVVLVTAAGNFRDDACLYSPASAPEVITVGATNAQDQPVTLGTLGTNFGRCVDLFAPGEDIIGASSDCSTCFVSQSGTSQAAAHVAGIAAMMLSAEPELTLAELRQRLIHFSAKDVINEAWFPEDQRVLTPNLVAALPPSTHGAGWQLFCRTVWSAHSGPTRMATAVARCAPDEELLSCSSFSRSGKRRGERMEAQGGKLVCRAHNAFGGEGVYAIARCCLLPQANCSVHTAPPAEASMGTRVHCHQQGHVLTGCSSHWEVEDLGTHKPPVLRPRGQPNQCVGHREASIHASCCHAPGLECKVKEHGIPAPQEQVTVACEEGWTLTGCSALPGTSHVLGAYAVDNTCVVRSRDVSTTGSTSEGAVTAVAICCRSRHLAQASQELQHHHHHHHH

T1 sequence (Q8NBP7 other isoform, or with tags, fused parts or gaps limits assumed): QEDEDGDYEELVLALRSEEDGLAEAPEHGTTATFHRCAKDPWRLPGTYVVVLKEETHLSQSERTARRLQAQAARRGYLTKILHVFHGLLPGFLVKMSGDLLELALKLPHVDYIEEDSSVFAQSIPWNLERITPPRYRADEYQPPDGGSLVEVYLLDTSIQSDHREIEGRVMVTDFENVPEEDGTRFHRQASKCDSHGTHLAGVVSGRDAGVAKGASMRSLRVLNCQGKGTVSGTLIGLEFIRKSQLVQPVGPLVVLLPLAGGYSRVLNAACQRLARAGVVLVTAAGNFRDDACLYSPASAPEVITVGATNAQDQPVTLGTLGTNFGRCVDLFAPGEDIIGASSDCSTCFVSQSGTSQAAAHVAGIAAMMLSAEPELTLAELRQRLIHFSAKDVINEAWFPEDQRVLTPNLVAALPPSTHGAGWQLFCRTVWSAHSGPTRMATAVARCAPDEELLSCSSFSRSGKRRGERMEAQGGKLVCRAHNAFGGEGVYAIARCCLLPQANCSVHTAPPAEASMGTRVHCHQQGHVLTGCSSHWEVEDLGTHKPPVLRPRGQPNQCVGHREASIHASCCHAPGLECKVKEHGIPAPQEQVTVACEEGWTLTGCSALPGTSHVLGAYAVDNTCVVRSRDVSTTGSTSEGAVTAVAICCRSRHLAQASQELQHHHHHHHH

IC50 [1] [µM]	IC50 (His-tagged PCSK9Δhelix) [µM]	Binder
≥ 50	1.5	WNLV[hArg]IGLLR (also: end groups and other groups only in drawing, Structure printed only as a drawing) [Compound 193]
9.7	4	WNLVRIGLLR (also: further groups not given here, Structure printed only as a drawing) [Compound 144]
48	4.9	WNLVRIGLLR (also: further groups not given here, Structure printed only as a drawing) [Compound 138]
7.3	2.2	WNLVRIGLLR (also: further groups not given here, Structure printed only as a drawing) [Compound 145]
31	11	Pentanoyl-[Trp(6-Cl)]NLVRIGLTR-NH2 (SMILES CCCCC(=O)N[C@@H](Cc1c[nH]c2cc(Cl)ccc12)C(=O)N[C@@H](CC(N)=O)C(=O)N[C@@H](CC(C)C)C(=O)N[C@H](C(=O)N[C@@H](CCCNC(=N)N)C(=O)N[C@H](C(=O)NCC(=O)N[C@@H](CC(C)C)C(=O)N[C@H](C(=O)N[C@@H](CCCNC(=N)N)C(N)=O)[C@@H](C)O)[C@@H](C)CC)C(C)C) [Compound 186]
≥ 50	36	WNLVRIGLLR (also: further groups not given here, Structure printed only as a drawing) [Compound 141]
0.97	0.09	WNLV[hArg]IGLLR (also: end groups and other groups only in drawing, Structure printed only as a drawing) [Compound 197]
≥ 50	1.3	Pentanoyl-WNLV[hArg]IGLLR-NH2 (also called n-BuC(O)-WNLV(homoR)IGLLR-NH2) [Compound 191]
7.7	0.33	WNLV[hArg]IGLLN (also: further groups not given here, Structure printed only as a drawing) [Compound 238]
≥ 50	2.7	Pentanoyl-WNLV[hArg]IGLTR (also called n-BuC(O)-WNLV(homoR)IGLTR) [Compound 235]
≥ 50	1.4	Pentanoyl-WNLV[hArg]IGLTR-NH2 (SMILES CCCCC(=O)N[C@@H](Cc1c[nH]c2ccccc12)C(=O)N[C@@H](CC(N)=O)C(=O)N[C@@H](CC(C)C)C(=O)N[C@H](C(=O)N[C@@H](CCCCNC(=N)N)C(=O)N[C@H](C(=O)NCC(=O)N[C@@H](CC(C)C)C(=O)N[C@H](C(=O)N[C@@H](CCCNC(=N)N)C(N)=O)[C@@H](C)O)[C@@H](C)CC)C(C)C, also called n-BuC(O)-WNLV(homoR)IGLTR-NH2) [Compound 234]
8.8	0.33	WNLV[hArg]IGLLQ-NH2 (N-terminus assumed; SMILES CC[C@H](C)[C@H](NC(=O)[C@H](CCCCNC(=N)N)NC(=O)[C@@H](NC(=O)[C@H](CC(C)C)NC(=O)[C@H](CC(N)=O)NC(=O)[C@@H](N)Cc1c[nH]c2ccccc12)C(C)C)C(=O)NCC(=O)N[C@@H](CC(C)C)C(=O)N[C@@H](CC(C)C)C(=O)N[C@@H](CCC(N)=O)C(N)=O, also called WNLV(homoR)IGLLQ-NH2) [Compound 237]
12	50	Ac-MDSFPGWNLVRIGLLR-NH2 [Compound 153]
26	36	Pentanoyl-[Trp(6-Br)]NLVRIGLTR-NH2 (SMILES CCCCC(=O)N[C@@H](Cc1c[nH]c2cc(Br)ccc12)C(=O)N[C@@H](CC(N)=O)C(=O)N[C@@H](CC(C)C)C(=O)N[C@H](C(=O)N[C@@H](CCCNC(=N)N)C(=O)N[C@H](C(=O)NCC(=O)N[C@@H](CC(C)C)C(=O)N[C@H](C(=O)N[C@@H](CCCNC(=N)N)C(N)=O)[C@@H](C)O)[C@@H](C)CC)C(C)C) [Compound 187]
≥ 50	19	WNLVRIGLLR (also: further groups not given here, Structure printed only as a drawing) [Compound 139]
22	8.2	WNLVRIGLLR (also: further groups not given here, Structure printed only as a drawing) [Compound 150]
≥ 50	19	Ac-DLMPWNLVRIGLPR-NH2 [Compound 160]
≥ 50	12	Ac-DLMPWNLKRIGLLR-NH2 [Compound 158]
≥ 50	23	WNLVRIGLLR (also: further groups not given here, Structure printed only as a drawing) [Compound 143]
11	1.7	WNLVRIGLLR (also: further groups not given here, Structure printed only as a drawing) [Compound 146]

IC50 [1] [µM]	IC50 (His-tagged PCSK9Δhelix) [µM]	Binder
43	14	Pentanoyl-WNLVRIGLLR [Compound 152]
≥ 50	39	Pentanoyl-[Trp(6-Me)]NLVRIGLTR-NH2 (SMILES CCCCC(=O)N[C@@H](Cc1c[nH]c2cc(C)ccc12)C(=O)N[C@@H](CC(N)=O)C(=O)N[C@@H](CC(C)C)C(=O)N[C@H](C(=O)N[C@@H](CCCNC(=N)N)C(=O)N[C@H](C(=O)NCC(=O)N[C@@H](CC(C)C)C(=O)N[C@H](C(=O)N[C@@H](CCCNC(=N)N)C(N)=O)[C@@H](C)O)[C@@H](C)CC)C(C)C) [Compound 175]
≥ 50	1.9	WNLV[hArg]IGLLR (also: end groups and other groups only in drawing, Structure printed only as a drawing) [Compound 194]
7.3	1.4	WNLV[hArg]IGLLR (also: end groups and other groups only in drawing, Structure printed only as a drawing) [Compound 196]
11	50	Ac-SFAFPGWNLVRIGLLR-NH2 [Compound 154]
≥ 50	15	WNLVRIGLLR (also: further groups not given here, Structure printed only as a drawing) [Compound 142]
≥ 50	26	WNLVRIGLLR (also: further groups not given here, Structure printed only as a drawing) [Compound 140]
11	8.9	WNLVRIGLLR (also: further groups not given here, Structure printed only as a drawing) [Compound 149]
≥ 50	6.7	WNLVRIGLLR (also: further groups not given here, Structure printed only as a drawing) [Compound 137]
11	50	Ac-DSYPGWNLVRIGLLR-NH2 [Compound 155]
11	50	Ac-ESYPGWNLVRIGLLR-NH2 [Compound 156]
≥ 50	9	WNLVRIGLLR (also: further groups not given here, Structure printed only as a drawing) [Compound 136]
6.9	2.5	WNLVRIGLLR (also: further groups not given here, Structure printed only as a drawing) [Compound 151]
≥ 50	5.3	Ac-WNLV[hArg]IGLLR-NH2 (also called Ac-WNLV(homoR)IGLLR-NH2) [Compound 192]
≥ 50	10	WNLVRIGLLR (also: further groups not given here, Structure printed only as a drawing) [Compound 135]
≥ 50	4.2	WNLVRIGLLR (also: further groups not given here, Structure printed only as a drawing) [Compound 134]
19	11	WNLVRIGLLR (also: further groups not given here, Structure printed only as a drawing) [Compound 148]
≥ 50	6.2	Pentanoyl-[Trp(6-F)]NLVRIGLTR-NH2 (SMILES CCCCC(=O)N[C@@H](Cc1c[nH]c2cc(F)ccc12)C(=O)N[C@@H](CC(N)=O)C(=O)N[C@@H](CC(C)C)C(=O)N[C@H](C(=O)N[C@@H](CCCNC(=N)N)C(=O)N[C@H](C(=O)NCC(=O)N[C@@H](CC(C)C)C(=O)N[C@H](C(=O)N[C@@H](CCCNC(=N)N)C(N)=O)[C@@H](C)O)[C@@H](C)CC)C(C)C) [Compound 174]
2.6	0.41	WNLVRIGLLR (also: further groups not given here, Structure printed only as a drawing) [Compound 147]
